Results: US20190315843A1 (PROTHENA BIOSCIENCES, published 2019)

How the values were obtained:
[1] = target: T1, wildtype human α-synuclein (human, UniProt P37840 1-140); assay: SPR (Biacore), antibody captured on anti-human IgG chip, alpha synuclein flowed over, 1:1 model, global fit
Procedure: An anti-human IgG CMS Biacore chip was prepared following the protocol supplied by GE Healthcare.
Data was collected and double reference subtracted to account for drift and a small amount of nonspecific binding. The data was analyzed using BIAcore evaluation software using a 1:1 model and a global fit.

[2] = target: T1, wildtype human α-synuclein; assay: ELISA on α-synuclein, twofold dilution series of the antibody

Kd [1] [nM] | koff [1] [s⁻¹] | kon [1] [M⁻¹ s⁻¹] | binding result [2] | Binder
120 | 0.0051 | – | – | humanized 5C1 H4L3 (antibody, V domains shown, The human constant region is not specified; also called h5C1_H4L3) VH: QVQLVQSGAELKKPGSSVKVSCKASGYTFTNYWMNWVRQAPGQGLEWIGATNPNNGYTDYNQRFKDRATLTADKSTNTAYMELSSLRSEDTAVYYCASGGHLAYWGQGTLVTVSS VL: DVVMTQSPLSLSVSPGEPASISCRSSQSLFHSKGNTYLHWYLQKPGQSPQLLINRVSNRFSGVPDRFSGSGSGTDFTLKISRVEAEDVGVYFCSQSAHVPWTFGGGTKVEIK
68.7 | 0.0051 | 75000 | – | murine 5C1 antibody (antibody, mouse IgG1, V domains shown, also called m5C1; mouse 5C1) VH: QVQLQQSGAELAKPGTSVQMSCKASGYTFTNYWMNWIKARPGQGLEWIGATNPNNGYTDYNQRFKDKAILTADKSSNTAYMHLSSLTSEDSAVYFCASGGHLAYWGQGTVVTVSA VL: DVVMTQIPLYLSVSPGDQASISCRSSQSLFHSKGNTYLHWYLQKPGQSPKLLINRVSNRFSGVPDRFSGSGSGTDFTLKISGVEAEDLGVYFCSQSAHVPWTFGGGTKLEIR
86 | 0.0053 | – | – | chimeric 5C1 antibody (antibody, V domains shown, also called Ch5C1) VH: QVQLQQSGAELAKPGTSVQMSCKASGYTFTNYWMNWIKARPGQGLEWIGATNPNNGYTDYNQRFKDKAILTADKSSNTAYMHLSSLTSEDSAVYFCASGGHLAYWGQGTVVTVSA VL: DVVMTQIPLYLSVSPGDQASISCRSSQSLFHSKGNTYLHWYLQKPGQSPKLLINRVSNRFSGVPDRFSGSGSGTDFTLKISGVEAEDLGVYFCSQSAHVPWTFGGGTKLEIR
601 | – | – | – | humanized 5C1 H4L4 (antibody, V domains shown, The human constant region is not specified; also called h5C1_H4L4) VH: QVQLVQSGAELKKPGSSVKVSCKASGYTFTNYWMNWVRQAPGQGLEWIGATNPNNGYTDYNQRFKDRATLTADKSTNTAYMELSSLRSEDTAVYYCASGGHLAYWGQGTLVTVSS VL: DIVMTQSPLSLSVSPGEPASISCRSSQSLFHSKGNTYLHWYLQKPGQSPQLLIYRVSNRFSGVPDRFSGSGSGTDFTLKISRVEAEDVGVYFCSQSAHVPWTFGGGTKVEIK
– | – | – | binds | humanized 5C1 H3L1 (antibody, V domains shown, The constant region is not specified) VH: QVQLVQSGAELKKPGSSVKVSCKASGYTFTNYWMNWVRQAPGQGLEWIGATNPNNGYTDYNQRFKDRATLTADKSTNTAYMELSSLRSEDTAVYFCASGGHLAYWGQGTLVTVSS VL: DVVMTQSPLSLSVSPGEPASISCRSSQSLFHSKGNTYLHWYLQKPGQSPKLLINRVSNRFSGVPDRFSGSGSGTDFTLKISRVEAEDVGVYFCSQSAHVPWTFGGGTKVEIK
1060 | – | – | – | humanized 5C1 H5L4 (antibody, V domains shown, The human constant region is not specified; also called h5C1_H5L4) VH: QVQLVQSGAELKKPGSSVKVSCKASGYTFTNYWMNWVRQAPGQGLEWIGATNPNNGYTDYNQRFKDRVTITADKSTNTAYMELSSLRSEDTAVYYCASGGHLAYWGQGTLVTVSS VL: DIVMTQSPLSLSVSPGEPASISCRSSQSLFHSKGNTYLHWYLQKPGQSPQLLIYRVSNRFSGVPDRFSGSGSGTDFTLKISRVEAEDVGVYFCSQSAHVPWTFGGGTKVEIK
1240 | – | – | – | humanized 5C1 H3L4 (antibody, V domains shown, It was captured on an anti-human IgG chip, so it carries a human constant region, which is not specified; also called h5C1_H3L4) VH: QVQLVQSGAELKKPGSSVKVSCKASGYTFTNYWMNWVRQAPGQGLEWIGATNPNNGYTDYNQRFKDRATLTADKSTNTAYMELSSLRSEDTAVYFCASGGHLAYWGQGTLVTVSS VL: DIVMTQSPLSLSVSPGEPASISCRSSQSLFHSKGNTYLHWYLQKPGQSPQLLIYRVSNRFSGVPDRFSGSGSGTDFTLKISRVEAEDVGVYFCSQSAHVPWTFGGGTKVEIK
283 | – | – | – | humanized 5C1 H5L3 (antibody, V domains shown, The human constant region is not specified; also called h5C1_H5L3) VH: QVQLVQSGAELKKPGSSVKVSCKASGYTFTNYWMNWVRQAPGQGLEWIGATNPNNGYTDYNQRFKDRVTITADKSTNTAYMELSSLRSEDTAVYYCASGGHLAYWGQGTLVTVSS VL: DVVMTQSPLSLSVSPGEPASISCRSSQSLFHSKGNTYLHWYLQKPGQSPQLLINRVSNRFSGVPDRFSGSGSGTDFTLKISRVEAEDVGVYFCSQSAHVPWTFGGGTKVEIK
– | – | – | binds | humanized 5C1 H3L3 (antibody, V domains shown, The constant region is not specified) VH: QVQLVQSGAELKKPGSSVKVSCKASGYTFTNYWMNWVRQAPGQGLEWIGATNPNNGYTDYNQRFKDRATLTADKSTNTAYMELSSLRSEDTAVYFCASGGHLAYWGQGTLVTVSS VL: DVVMTQSPLSLSVSPGEPASISCRSSQSLFHSKGNTYLHWYLQKPGQSPQLLINRVSNRFSGVPDRFSGSGSGTDFTLKISRVEAEDVGVYFCSQSAHVPWTFGGGTKVEIK

Binder | Kd [1] [nM] | koff [1] [s⁻¹] | kon [1] [M⁻¹ s⁻¹] | binding result [2]
humanized 5C1 H1L1 (antibody, V domains shown, The constant region is not specified) VH: QVQLVQSGAELKKPGSSVKVSCKASGYTFTNYWMNWVRQAPGQGLEWIGATNPNNGYTDYNQRFKDRATLTADKSTNTAYMELSSLRSEDTAVYYCARGGHLAYWGQGTLVTVSS VL: DVVMTQSPLSLSVSPGEPASISCRSSQSLFHSKGNTYLHWYLQKPGQSPKLLINRVSNRFSGVPDRFSGSGSGTDFTLKISRVEAEDVGVYFCSQSAHVPWTFGGGTKVEIK | – | – | – | no binding (tested: 1000 (x axis has no unit))
